In article PMC9991911, “IMM0306, a fusion protein of CD20 mAb with the CD47 binding domain of SIRPα, exerts excellent cancer killing efficacy by activating both macrophages and NK cells via blockade of CD47-SIRPα interaction and FcɣR engagement by simultaneously binding to CD47 and CD20 of B cells” (Leukemia, 2022):

Key:
[1] = target: T1, CD20 on Raji-CD47KO cells (Homo sapiens (endogenous, Raji-CD47KO), UniProt P11836); test: flow cytometry on cells; cultured cells (Jurkat; Raji-CD47KO; cells with both targets) stained with IMM0306, then secondary antibody anti-human IgG (Fc)-FITC; data analysed with GraphPad Prism 8.0; conditions: one partner purified
T1 construct: CD20, endogenous on Raji-CD47KO cells; also called CD20 target on Raji-CD47KO cells; CD20-positive cells (Raji-CD47KO); source: endogenous, on Raji-CD47KO cells (Raji with human CD47 knockout, in-house)

CD20 (Biacore assay) = CD20 (Biacore assay) (UniProt P11836); test: SPR; Biacore assay; who was immobilised and the conditions not given
CD47 (Biacore assay) = CD47 (Biacore assay) (UniProt Q08722); test: as above
CD47/CD20 double targets = test: flow cytometry on cells; cultured cells (Jurkat; Raji-CD47KO; cells with both targets) stained with IMM0306, then secondary antibody anti-human IgG (Fc)-FITC; data analysed with GraphPad Prism 8.0
[2] = target: CD47 on Jurkat cells (human (endogenous in Jurkat)) (UniProt Q08722); test: as above
CD47 on Jurkat cells (human (endogenous in Jurkat)), sequence (Q08722 19-323): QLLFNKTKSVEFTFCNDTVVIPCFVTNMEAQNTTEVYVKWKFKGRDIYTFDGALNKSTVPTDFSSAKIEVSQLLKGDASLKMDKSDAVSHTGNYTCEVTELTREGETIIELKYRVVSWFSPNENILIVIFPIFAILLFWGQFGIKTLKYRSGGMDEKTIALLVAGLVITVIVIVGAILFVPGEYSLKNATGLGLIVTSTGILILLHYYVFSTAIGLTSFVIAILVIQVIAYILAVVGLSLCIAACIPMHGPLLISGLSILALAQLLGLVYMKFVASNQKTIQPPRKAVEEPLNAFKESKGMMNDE

CD20 (Biacore assay), sequence (P11836 whole entry): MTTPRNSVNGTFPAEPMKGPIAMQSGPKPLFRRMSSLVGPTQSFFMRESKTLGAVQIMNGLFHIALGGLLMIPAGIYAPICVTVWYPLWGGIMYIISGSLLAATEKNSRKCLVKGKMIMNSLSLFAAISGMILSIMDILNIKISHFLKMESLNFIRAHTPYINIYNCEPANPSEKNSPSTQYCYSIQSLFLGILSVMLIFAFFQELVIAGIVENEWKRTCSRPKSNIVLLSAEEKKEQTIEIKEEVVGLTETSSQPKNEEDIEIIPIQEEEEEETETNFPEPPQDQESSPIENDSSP
T1 sequence (P11836 whole entry): as above
CD47 (Biacore assay), sequence (Q08722 19-323): as the sequence (Q08722 19-323) above

EC50 [1]: 18.9 nM
Kd (CD20 (Biacore assay)): 2.45 nM
Kd (CD47 (Biacore assay)): 4.91 nM
EC50 (CD47/CD20 double targets): 11.5 nM
EC50 [2]: 16.8 nM
B1: IMM0306, a fusion protein of CD20 mAb with the CD47 binding domain of SIRPα (bispecific antibody, V domains shown)
VH: QVQLQQPGAELVKPGASVKMSCKASGYTFTSYNMHWVKQTPGRGLEWIGAIYPGNGDTSYNQKFKGKATLTADKSSSTAYMQLSSLTSEDSAVYYCARSTYYGGDWYFNVWGAGTTVTVSA
VL: QIVLSQSPAILSASPGEKVTMTCRASSSVSYIHWFQQKPGSSPKPWIYATSNLASGVPVRFSGSGSGTSYSLTISRVEAEDAATYYCQQWTSNPPTFGGGTKHELK
notes: IgG1; only the SIRPα D1 part can be built; also called CD47xCD20 mAb trap; source: in-house developed CHO-K1 cell expression system; copies: 2 +
